Results reported in patent US20260274985A1 (MYTHIC THERAPEUTICS, published 2026).
Read-outs that look alike come from different tables or passages of the source.

T1: Human TROP2 Protein, His Tag (Acro Biosystems) (human, UniProt P09758 27-274)
T1 construct: not shown: His tag
T1 sequence (looked up): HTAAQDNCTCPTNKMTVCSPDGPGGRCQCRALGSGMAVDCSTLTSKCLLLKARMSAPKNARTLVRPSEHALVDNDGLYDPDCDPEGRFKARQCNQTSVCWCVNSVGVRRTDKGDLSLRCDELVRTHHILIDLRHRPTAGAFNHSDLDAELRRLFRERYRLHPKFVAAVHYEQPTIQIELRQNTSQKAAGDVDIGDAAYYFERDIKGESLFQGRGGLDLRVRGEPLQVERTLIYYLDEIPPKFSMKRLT

T2: Human TROP2 Protein, His Tag (Acro Biosystems) (human, UniProt P09758 27-274)
T2 construct: Soluble analyte of the Octet assay; also called TACSTD2; not shown: His tag
T2 sequence (looked up): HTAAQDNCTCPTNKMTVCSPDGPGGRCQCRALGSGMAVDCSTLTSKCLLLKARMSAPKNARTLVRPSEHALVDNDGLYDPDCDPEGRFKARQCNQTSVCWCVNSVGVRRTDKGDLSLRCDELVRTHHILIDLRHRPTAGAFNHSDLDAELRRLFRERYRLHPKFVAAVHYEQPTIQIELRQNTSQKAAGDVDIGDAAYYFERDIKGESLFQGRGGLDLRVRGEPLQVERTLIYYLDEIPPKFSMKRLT


What was measured:
[1] = target: T1, Human TROP2 Protein, His Tag (Acro …); experiment: BLI (Octet) [1/2]
[2] = target: T2, Human TROP2 Protein, His Tag (Acro …); experiment: BLI (Octet) [1/2]

| Binder | binding result [1] | binding result [2] |
| --- | --- | --- |
| MYT12329 (antibody, V domains shown, sacituzumab VH 60, 64, 66 -> H) VH: QVQLQQSGSELKKPGASVKVSCKASGYTFTNYGMNWVKQAPGQGLKWMGWINTYTGEPTHTDDHKHRFAFSLDTSVSTAYLQISSLKADDTAVYFCARGGFGSSYWYFDVWGQGSLVTVSS VL: DIQLTQSPSSLSASVGDRVSITCKASQDVSIAVAWYQQKPGKAPKLLIYSASYRYTGVPDRFSGSGSGTDFTLTISSLQPEDFAVYYCQQHYITPLTFGAGTKVEIK | binds | – |
| MYT13207 (antibody, V domains shown, Sacituzumab HC-LC pairing variant; IgG) VH: QVQLQQSGSELKKPGASVKVSCKASGYTFTNYGMNWVKQAPGQGLKWMGWINTYTGEPTYTDDFKHRFAFSLDTSVSTAYLQISSLKADDTAVYFCARGGFGSSYWYFDVWGQGSLVTVSS VL: DIQLTQSPSSLSASVGDRVSITCKASQDVSIAVAWYQQKPGKAPKLLIYSASYRYTGVPDRFSGSGSGTDFTLTISSLQPEDFAVYYCHQHYITPLTFGAGTKVEIK | – | binds |
| MYT12334 (antibody, V domains shown, sacituzumab VL 30, 52 -> H) VH: QVQLQQSGSELKKPGASVKVSCKASGYTFTNYGMNWVKQAPGQGLKWMGWINTYTGEPTYTDDFKGRFAFSLDTSVSTAYLQISSLKADDTAVYFCARGGFGSSYWYFDVWGQGSLVTVSS VL: DIQLTQSPSSLSASVGDRVSITCKASQDVHIAVAWYQQKPGKAPKLLIYSAHYRYTGVPDRFSGSGSGTDFTLTISSLQPEDFAVYYCQQHYITPLTFGAGTKVEIK | binds | – |
| MYT13206 (antibody, V domains shown, Sacituzumab HC-LC pairing variant; IgG) VH: QVQLQQSGSELKKPGASVKVSCKASGYTFTNYGMNWVKQAPGQGLKWMGWINTYTGEPTYTDDFHGRFAFSLDTSVSTAYLQISSLKADDTAVYFCARGGFGSSYWYFDVWGQGSLVTVSS VL: DIQLTQSPSSLSASVGDRVSITCKASQDVSIAVAWYQQKPGKAPKLLIYSASYRYTGVPDRFSGSGSGTDFTLTISSLQPEDFAVYYCHQHYITPLTFGAGTKVEIK | – | binds |
| MYT12340 (antibody, V domains shown, sacituzumab VL 33, 51 -> H) VH: QVQLQQSGSELKKPGASVKVSCKASGYTFTNYGMNWVKQAPGQGLKWMGWINTYTGEPTYTDDFKGRFAFSLDTSVSTAYLQISSLKADDTAVYFCARGGFGSSYWYFDVWGQGSLVTVSS VL: DIQLTQSPSSLSASVGDRVSITCKASQDVSIAHAWYQQKPGKAPKLLIYSHSYRYTGVPDRFSGSGSGTDFTLTISSLQPEDFAVYYCQQHYITPLTFGAGTKVEIK | binds | – |
| MYT13224 (antibody, V domains shown, Sacituzumab HC-LC pairing variant; IgG) VH: QVQLQQSGSELKKPGASVKVSCKASGYTFTNHGMNWVKQAPGQGLKWMGWINTYTGEPTYTDDFKGRFAFSLDTSVSTAYLQISSLKADDTAVYFCARGGFGSSYWYFDVWGQGSLVTVSS VL: DIQLTQSPSSLSASVGDRVSITCKASQDVSIAVAWYQQKPGKAPKLLIYSASYRYTGVPDRFSGSGSGTDFTLTISSLQPEDFAVYYCQQHYHTPLTFGAGTKVEIK | – | binds |
| MYT13213 (antibody, V domains shown, Sacituzumab HC-LC pairing variant; IgG) VH: QVQLQQSGSELKKPGASVKVSCKASGYTFTNYGMNWVKQAPGQGLKWMGWINTYTGEPTYTDDHKGRFAFSLDTSVSTAYLQISSLKADDTAVYFCARGGFGSSYWYFDVWGQGSLVTVSS VL: DIQLTQSPSSLSASVGDRVSITCKASQDVSIAVAWYQQKPGKAPKLLIYSASYRYTGVPDRFSGSGSGTDFTLTISSLQPEDFAVYYCQQAYITPLTFGAGTKVEIK | – | binds |
| MYT12341 (antibody, V domains shown, sacituzumab VL 33, 52 -> H) VH: QVQLQQSGSELKKPGASVKVSCKASGYTFTNYGMNWVKQAPGQGLKWMGWINTYTGEPTYTDDFKGRFAFSLDTSVSTAYLQISSLKADDTAVYFCARGGFGSSYWYFDVWGQGSLVTVSS VL: DIQLTQSPSSLSASVGDRVSITCKASQDVSIAHAWYQQKPGKAPKLLIYSAHYRYTGVPDRFSGSGSGTDFTLTISSLQPEDFAVYYCQQHYITPLTFGAGTKVEIK | binds | – |
| MYT13211 (antibody, V domains shown, Sacituzumab HC-LC pairing variant; IgG) VH: QVQLQQSGSELKKPGASVKVSCKASGYTFTNYGMNWVKQAPGQGLKWMGWINTYTGEPTYTHDFKGRFAFSLDTSVSTAYLQISSLKADDTAVYFCARGGFGSSYWYFDVWGQGSLVTVSS VL: DIQLTQSPSSLSASVGDRVSITCKASQDVSIAVAWYQQKPGKAPKLLIYSASYRYTGVPDRFSGSGSGTDFTLTISSLQPEDFAVYYCQQAYITPLTFGAGTKVEIK | – | binds |
| MYT12333 (antibody, V domains shown, sacituzumab VL 30, 51 -> H) VH: QVQLQQSGSELKKPGASVKVSCKASGYTFTNYGMNWVKQAPGQGLKWMGWINTYTGEPTYTDDFKGRFAFSLDTSVSTAYLQISSLKADDTAVYFCARGGFGSSYWYFDVWGQGSLVTVSS VL: DIQLTQSPSSLSASVGDRVSITCKASQDVHIAVAWYQQKPGKAPKLLIYSHSYRYTGVPDRFSGSGSGTDFTLTISSLQPEDFAVYYCQQHYITPLTFGAGTKVEIK | binds | – |

The remaining lines, values ahead:

| binding result [1] | binding result [2] | Binder |
| --- | --- | --- |
| – | binds | MYT13212 (antibody, V domains shown, Sacituzumab HC-LC pairing variant; IgG) VH: QVQLQQSGSELKKPGASVKVSCKASGYTFTNYGMNWVKQAPGQGLKWMGWINTYTGEPTYTDHFKGRFAFSLDTSVSTAYLQISSLKADDTAVYFCARGGFGSSYWYFDVWGQGSLVTVSS VL: DIQLTQSPSSLSASVGDRVSITCKASQDVSIAVAWYQQKPGKAPKLLIYSASYRYTGVPDRFSGSGSGTDFTLTISSLQPEDFAVYYCQQAYITPLTFGAGTKVEIK |
| – | binds | MYT13225 (antibody, V domains shown, Sacituzumab HC-LC pairing variant; IgG) VH: QVQLQQSGSELKKPGASVKVSCKASGYTFTNYHMNWVKQAPGQGLKWMGWINTYTGEPTYTDDFKGRFAFSLDTSVSTAYLQISSLKADDTAVYFCARGGFGSSYWYFDVWGQGSLVTVSS VL: DIQLTQSPSSLSASVGDRVSITCKASQDVSIAVAWYQQKPGKAPKLLIYSASYRYTGVPDRFSGSGSGTDFTLTISSLQPEDFAVYYCQQHYHTPLTFGAGTKVEIK |
| – | binds | MYT13214 (antibody, V domains shown, Sacituzumab HC-LC pairing variant; IgG) VH: QVQLQQSGSELKKPGASVKVSCKASGYTFTNYGMNWVKQAPGQGLKWMGWINTYTGEPTYTDDFHGRFAFSLDTSVSTAYLQISSLKADDTAVYFCARGGFGSSYWYFDVWGQGSLVTVSS VL: DIQLTQSPSSLSASVGDRVSITCKASQDVSIAVAWYQQKPGKAPKLLIYSASYRYTGVPDRFSGSGSGTDFTLTISSLQPEDFAVYYCQQAYITPLTFGAGTKVEIK |
| binds | – | MYT12339 (antibody, V domains shown, sacituzumab VL 30, 93 -> H) VH: QVQLQQSGSELKKPGASVKVSCKASGYTFTNYGMNWVKQAPGQGLKWMGWINTYTGEPTYTDDFKGRFAFSLDTSVSTAYLQISSLKADDTAVYFCARGGFGSSYWYFDVWGQGSLVTVSS VL: DIQLTQSPSSLSASVGDRVSITCKASQDVHIAVAWYQQKPGKAPKLLIYSASYRYTGVPDRFSGSGSGTDFTLTISSLQPEDFAVYYCQQHYHTPLTFGAGTKVEIK |
| – | binds | MYT13205 (antibody, V domains shown, Sacituzumab HC-LC pairing variant; IgG) VH: QVQLQQSGSELKKPGASVKVSCKASGYTFTNYGMNWVKQAPGQGLKWMGWINTYTGEPTYTDDHKGRFAFSLDTSVSTAYLQISSLKADDTAVYFCARGGFGSSYWYFDVWGQGSLVTVSS VL: DIQLTQSPSSLSASVGDRVSITCKASQDVSIAVAWYQQKPGKAPKLLIYSASYRYTGVPDRFSGSGSGTDFTLTISSLQPEDFAVYYCHQHYITPLTFGAGTKVEIK |
| binds | – | MYT12336 (antibody, V domains shown, sacituzumab VL 30, 89 -> H) VH: QVQLQQSGSELKKPGASVKVSCKASGYTFTNYGMNWVKQAPGQGLKWMGWINTYTGEPTYTDDFKGRFAFSLDTSVSTAYLQISSLKADDTAVYFCARGGFGSSYWYFDVWGQGSLVTVSS VL: DIQLTQSPSSLSASVGDRVSITCKASQDVHIAVAWYQQKPGKAPKLLIYSASYRYTGVPDRFSGSGSGTDFTLTISSLQPEDFAVYYCHQHYITPLTFGAGTKVEIK |
| binds | – | MYT12335 (antibody, V domains shown, sacituzumab VL 30, 53 -> H) VH: QVQLQQSGSELKKPGASVKVSCKASGYTFTNYGMNWVKQAPGQGLKWMGWINTYTGEPTYTDDFKGRFAFSLDTSVSTAYLQISSLKADDTAVYFCARGGFGSSYWYFDVWGQGSLVTVSS VL: DIQLTQSPSSLSASVGDRVSITCKASQDVHIAVAWYQQKPGKAPKLLIYSASHRYTGVPDRFSGSGSGTDFTLTISSLQPEDFAVYYCQQHYITPLTFGAGTKVEIK |
| – | binds | MYT13204 (antibody, V domains shown, Sacituzumab HC-LC pairing variant; IgG) VH: QVQLQQSGSELKKPGASVKVSCKASGYTFTNYGMNWVKQAPGQGLKWMGWINTYTGEPTYTDHFKGRFAFSLDTSVSTAYLQISSLKADDTAVYFCARGGFGSSYWYFDVWGQGSLVTVSS VL: DIQLTQSPSSLSASVGDRVSITCKASQDVSIAVAWYQQKPGKAPKLLIYSASYRYTGVPDRFSGSGSGTDFTLTISSLQPEDFAVYYCHQHYITPLTFGAGTKVEIK |
| binds | – | MYT12332 (antibody, V domains shown, sacituzumab VL 30, 33 -> H) VH: QVQLQQSGSELKKPGASVKVSCKASGYTFTNYGMNWVKQAPGQGLKWMGWINTYTGEPTYTDDFKGRFAFSLDTSVSTAYLQISSLKADDTAVYFCARGGFGSSYWYFDVWGQGSLVTVSS VL: DIQLTQSPSSLSASVGDRVSITCKASQDVHIAHAWYQQKPGKAPKLLIYSASYRYTGVPDRFSGSGSGTDFTLTISSLQPEDFAVYYCQQHYITPLTFGAGTKVEIK |
| – | binds | MYT13215 (antibody, V domains shown, Sacituzumab HC-LC pairing variant; IgG) VH: QVQLQQSGSELKKPGASVKVSCKASGYTFTNYGMNWVKQAPGQGLKWMGWINTYTGEPTYTDDFKHRFAFSLDTSVSTAYLQISSLKADDTAVYFCARGGFGSSYWYFDVWGQGSLVTVSS VL: DIQLTQSPSSLSASVGDRVSITCKASQDVSIAVAWYQQKPGKAPKLLIYSASYRYTGVPDRFSGSGSGTDFTLTISSLQPEDFAVYYCQQAYITPLTFGAGTKVEIK |
